Experimental data reported in patent US20260035456A1 (SHANGHAI JEYOU PHARMACEUTICAL, published 2026).
Numbering of substitutions follows the chain as printed.

T1: biotin-labeled human ADM (human, not fully specified; biotin label (named human ADM-C-biotin in Example 1.4; position of the biotin not stated for the other lots))
T1 construct: Synthetic peptide; also called human ADM-C-biotin; hADM-Biotin
T1 peptide: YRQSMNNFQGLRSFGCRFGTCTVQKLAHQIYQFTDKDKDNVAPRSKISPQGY

T2: biotin-labeled mouse ADM (mouse, not fully specified; biotin label (named mouse ADM-C-biotin in Example 1.4; position of the biotin not stated for the other lots))
T2 construct: Synthetic peptide; also called mouse ADM-C-biotin; mADM-Biotin
T2 peptide: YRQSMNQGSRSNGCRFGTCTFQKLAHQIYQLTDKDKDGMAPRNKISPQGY

B1: chimeric antibody 2004hz00 (antibody, human IgG1, kappa)
heavy: not shown
light: DVLMTQTPFSLPVSLGDQASISCRSSQSIIDSDGNTYLEWYLQKPGQSPKLLIYKVSNRFSGVPDRFSGSGSGTDFTLRISRVEAEDLGVYYCFQGSHFPYTFAGGTKLELKRTVAAPSVFIFPPSDEQLKSGTASVVCLLNNFYPREAKVQWKVDNALQSGNSQESVTEQDSKDSTYSLSSTLTLSKADYEKHKVYACEVTHQGLSSPVTKSFNRGEC
notes: Human IgG1/kappa
B2: humanized antibody 2004hz97 (antibody, human IgG1, kappa)
heavy: not shown
light: DVVMTQSPLSLPVTLGQPASISCRSSQSIIDSDGNTYLEWYQQRPGQSPRLLIYKVSNRFSGVPDRFSGSGSGTDFTLKISRVEAEDFGVYYCFQGSHFPYTFGQGTKLEIKRTVAAPSVFIFPPSDEQLKSGTASVVCLLNNFYPREAKVQWKVDNALQSGNSQESVTEQDSKDSTYSLSSTLTLSKADYEKHKVYACEVTHQGLSSPVTKSFNRGEC
notes: Human IgG1/kappa
B3: humanized antibody 2004hz99 (antibody, human IgG1, kappa)
heavy: not shown
light: B2 light with V3L, G104A
notes: Human IgG1/kappa
B4: Enibarcimab (antibody, V domains shown)
VH: QVQLVQSGAEVKKPGSSVKVSCKASGYTFSRYWIEWVRQAPGQGLEWIGEILPGSGSTNYNQKFQGRVTITADTSTSTAYMELSSLRSEDTAVYYCTEGYEYDGFDYWGQGTTVTVSS
VL: DVVLTQSPLSLPVTLGQPASISCRSSQSIVYSNGNTYLEWYLQRPGQSPRLLIYRVSNRFSGVPDRFSGSGSGTDFTLKISRVEAEDVGVYYCFQGSHIPYTFGGGTKLEIKR
B5: Ab2004.Am36 (IgG1 antibody) (antibody, V domains shown)
VH: QVQLVQSGAEVKKPGASVKVSCKASGYTFTQYGIAWVRQAPGQGLEWMGWISAYQGNTNYAQKLQGRVTMTRDTSTSTAYMELRSLRSDDTAVYYCAREGRWGGSFNIWGQGTMVTVSS
VL: DIQMTQSPSSLSASVGDRVTITCRASQGISSYLAWYQQKPGKAPKLLIYDASNVDTGVPSRFSGSGSGTDFTFTISSLQPEDIATYYCQQYDNLPLTFGGGTKVEIKR
notes: Expressed in CHO cells, human IgG1/kappa
B6: Ab2004.Am35 (IgG1 antibody) (antibody, V domains shown)
VH: B5 VH
VL: B5 VL with A51V, N53I, V54L, T56A
notes: as for B5
B7: Ab2004.Am34 (IgG1 antibody) (antibody, V domains shown)
VH: B5 VH with Q31H
VL: B5 VL with A51V, N53I, V54L, T56A
notes: as for B5
B8: Ab2004.Am31 (IgG1 antibody) (antibody, V domains shown)
VH: B5 VH
VL: B5 VL with Q27E, S31E, V54L, D55E
notes: as for B5
B9: Ab2004.Am40 (IgG1 antibody) (antibody, V domains shown)
VH: B5 VH
VL: B5 VL with V54L, D55E, N93D, T97S
notes: as for B5
B10: Ab2004.Am38 (IgG1 antibody) (antibody, V domains shown)
VH: B5 VH with Q31S, A35S, A53P, Q55T, N57K
VL: B5 VL with A51T, N53D, V54L
notes: as for B5
B11: fully human antibody Ab2004.Am01 (expressed antibody) (antibody, V domains shown)
VH: B5 VH with Q31S, A35S
VL: DIQMTQSPSSLSASVGDRVTITCRASQGISSYLAWYQQKPGKAPKLLIYDASNLETGVPSRFSGSGSGTDFTFTISSLQPEDIATYYCQQYDNLPLTFGGGTKVEIK
notes: also called parent antibody Ab2004.Am01
B12: Ab2004.Am33 (IgG1 antibody) (antibody, V domains shown)
VH: B5 VH with Q31S, A35S, A53P, Q55S
VL: B5 VL with Q27E, S31E, V54L, D55E
notes: as for B5
B13: Ab2004.Am32 (IgG1 antibody) (antibody, V domains shown)
VH: B5 VH
VL: B5 VL with S26A, Q27E, S30G, V54L, D55E
notes: as for B5
B14: Ab2004.Am37 (IgG1 antibody) (antibody, V domains shown)
VH: B5 VH with Q31S, A35S, A53P, Q55T, N57K
VL: B5 VL with A51V, N53I, V54L, T56A
notes: as for B5
B15: Ab2004.Am39 (IgG1 antibody) (antibody, V domains shown)
VH: B5 VH with Q31H
VL: B5 VL with V54L, D55E, N93D, P95D
notes: as for B5

What was measured:
biotin-labeled human ADM [1] = target: T1, biotin-labeled human ADM; assay: BLI (Octet RED96e), biotinylated antigen on SA sensor, antibody 100 nM, 1:1 fit
Description: (§1) The affinity of antibodies 2004hz00, 2004hz97, and 2004hz99 for biotin-labeled human and mouse ADM (human ADM Cat. No. 894757, mouse ADM Cat. No. 894758, synthesized by GLBiochem) was determined by adopting Octet RED96e (Fortebio). The antigens and the antibodies were all diluted with 1× PBST (1× PBS: Sangon, B548117-0500; 0.02% Tween 20: sigma, P1379), the concentration of the antibody used was 100 nM, and the concentration of the antigen used was 2 μg/mL. The candidate antibody sample was added to a 96-well plate (Greiner bio-one, 655209) at 200 μL/well, the software parameters were set, the temperature was 30° C., and the standard kinetic signal was collected at a frequency of 5.0 Hz; and an SA sensor (Fortebio, Cat. No. 18-5020) was pre-wetted with 1× PBST for 10 min and then tested on a machine.
(§2) The equilibrium dissociation constants (KD) of the antibodies were calculated by measuring the association rates (Kon) and the dissociation rates (Koff) of the antigen-antibody in a 1:1 binding manner by adopting the Data Analysis 12.0 software from Fortebio.

biotin-labeled mouse ADM [2] = target: T2, biotin-labeled mouse ADM; assay: as above
Description: as §1, §2

biotin-labeled human ADM [3] = target: T1, biotin-labeled human ADM; assay: BLI (Octet RED96e), as in Example 3
Description: as §1, §2
(§3) Similar to Example 3, the affinity of the affinity-matured antibodies Ab2004.Am31 -Ab2004.Am40 and the parent antibody Ab2004.Am01 for human and mouse ADM was further determined, respectively, and the results are shown in Table 10. It can be seen from Table 10 […].

biotin-labeled mouse ADM [4] = target: T2, biotin-labeled mouse ADM; assay: BLI (Octet RED96e), as in Example 3
Description: as §1, §2, §3

Row | Binder | Kd (biotin-labeled human ADM [1]) | Response value (biotin-labeled human ADM [1]) | koff (biotin-labeled human ADM [1]) | kon (biotin-labeled human ADM [1]) | Kd (biotin-labeled mouse ADM [2]) | Response value (biotin-labeled mouse ADM [2]) | koff (biotin-labeled mouse ADM [2]) | kon (biotin-labeled mouse ADM [2]) | Kd (biotin-labeled human ADM [3]) | Response value (biotin-labeled human ADM [3]) | koff (biotin-labeled human ADM [3]) | kon (biotin-labeled human ADM [3]) | Kd (biotin-labeled mouse ADM [4]) | Response value (biotin-labeled mouse ADM [4]) | koff (biotin-labeled mouse ADM [4]) | kon (biotin-labeled mouse ADM [4])
1 | B1 | 0.457 nM | 2.69 | 0.000201 s⁻¹ | 441000 M⁻¹ s⁻¹ | 0.454 nM | 3.19 | 0.000196 s⁻¹ | 432000 M⁻¹ s⁻¹ |  |  |  |  |  |  |  | 
2 | B2 | 0.546 nM | 2.39 | 0.000252 s⁻¹ | 461000 M⁻¹ s⁻¹ | 0.489 nM | 3 | 0.000231 s⁻¹ | 472000 M⁻¹ s⁻¹ |  |  |  |  |  |  |  | 
3 | B3 | 0.429 nM | 2.58 | 0.000201 s⁻¹ | 468000 M⁻¹ s⁻¹ | 0.418 nM | 3.06 | 0.000194 s⁻¹ | 465000 M⁻¹ s⁻¹ |  |  |  |  |  |  |  | 
4 | B4 |  |  |  |  |  |  |  |  | 0.567 nM | 2.07 | 0.000382 s⁻¹ | 673000 M⁻¹ s⁻¹ | 0.497 nM | 2.75 | 0.000297 s⁻¹ | 597000 M⁻¹ s⁻¹
5 | B5 |  |  |  |  |  |  |  |  | 0.291 nM | 2.7 | 0.000108 s⁻¹ | 372000 M⁻¹ s⁻¹ | 0.518 nM | 2.75 | 0.000221 s⁻¹ | 427000 M⁻¹ s⁻¹
6 | B6 |  |  |  |  |  |  |  |  | 0.281 nM | 1.96 | 0.000119 s⁻¹ | 423000 M⁻¹ s⁻¹ | 0.452 nM | 2.74 | 0.000206 s⁻¹ | 456000 M⁻¹ s⁻¹
7 | B7 |  |  |  |  |  |  |  |  | 0.154 nM | 2.61 | 6.81e-05 s⁻¹ | 444000 M⁻¹ s⁻¹ | 0.451 nM | 2.78 | 0.000222 s⁻¹ | 492000 M⁻¹ s⁻¹
8 | B8 |  |  |  |  |  |  |  |  | 0.288 nM | 2.64 | 0.000141 s⁻¹ | 491000 M⁻¹ s⁻¹ | 0.412 nM | 2.81 | 0.000221 s⁻¹ | 537000 M⁻¹ s⁻¹
9 | B9 |  |  |  |  |  |  |  |  | 0.352 nM | 2.66 | 0.000158 s⁻¹ | 449000 M⁻¹ s⁻¹ | 0.492 nM | 2.65 | 0.000253 s⁻¹ | 513000 M⁻¹ s⁻¹
10 | B10 |  |  |  |  |  |  |  |  | 0.255 nM | 2.83 | 0.00016 s⁻¹ | 626000 M⁻¹ s⁻¹ | 0.467 nM | 2.88 | 0.000342 s⁻¹ | 733000 M⁻¹ s⁻¹
11 | B11 |  |  |  |  |  |  |  |  | 0.766 nM | 2.34 | 0.000233 s⁻¹ | 305000 M⁻¹ s⁻¹ | 2.21 nM | 2.35 | 0.000956 s⁻¹ | 434000 M⁻¹ s⁻¹
12 | B12 |  |  |  |  |  |  |  |  | 0.316 nM | 2.63 | 0.000214 s⁻¹ | 676000 M⁻¹ s⁻¹ | 0.474 nM | 2.8 | 0.000365 s⁻¹ | 769000 M⁻¹ s⁻¹
13 | B13 |  |  |  |  |  |  |  |  | 0.34 nM | 2.53 | 0.000146 s⁻¹ | 430000 M⁻¹ s⁻¹ | 0.474 nM | 2.76 | 0.000219 s⁻¹ | 461000 M⁻¹ s⁻¹
14 | B14 |  |  |  |  |  |  |  |  | 0.256 nM | 2.88 | 0.00015 s⁻¹ | 587000 M⁻¹ s⁻¹ | 0.469 nM | 2.85 | 0.00033 s⁻¹ | 703000 M⁻¹ s⁻¹
15 | B15 |  |  |  |  |  |  |  |  | 0.178 nM | 2.57 | 8.33e-05 s⁻¹ | 468000 M⁻¹ s⁻¹ | 0.489 nM | 2.7 | 0.000266 s⁻¹ | 543000 M⁻¹ s⁻¹
